In patent publication US20120321699A1 (published 2012) one finds Kd data, which are given here for one molecule.

The assay concerns the target HV00044 (6240 TZ5 140C) (HIV-1). As to the kind of experiment: SPR. For orientation: Surface plasmon resonance follows binding to a sensor surface in real time, without labels.

As a reminder, the Kd is the free concentration of one partner at which half of the binding sites on the other are occupied at equilibrium, for simple one-to-one binding.

B1: CH01 (antibody, V domains shown)
VH: EVQLVESGANVVRPGGSLRLSCKASGFIFENFGFSWVRQAPGKGLQWVAGLNWNGGDTRYADSVKGRFRMSRDNSRNFVYLDMDKVGVDDTAFYYCARGTDYTIDDAGIHYQGSGTFWYFDLWGRGTLVSVSS
VL: EIVLTQSPGTLSLSPGERATLSCRASHNVHPKYFAWYQQKPGQSPRLLIYGGSTRAAGIPGKFSGSGSGTDFTLTISRVDPEDFAVYYCQQYGGSPYTFGQGTKVEI
B1 showed a Kd of 300 nM.
